The values below come from patent US20210198640A1 (DENALI THERAPEUTICS, published 2021).

For assay [1], the target named is T1, human transferrin receptor protein 1 (TfR) (human, UniProt P02786 89-760, limits assumed).
T1 construct: also called human TfR; hTfR
Put plainly: ELISA, TfR coated on plate, Fc-Fab fusion.

The target in assay [2] is T1, human transferrin receptor protein 1 …. Put plainly: selection from soft randomization libraries.
The target in a further assay is CH3C.35.N153.bi. The assay is described as follows: SPR, TfR ECD captured, clone injected, steady state. (In general: Surface plasmon resonance follows binding to a sensor surface in real time, without labels.)

Residue numbers refer to the chain shown, from its start.

B1: Clone CH3C.3.2-1 (designed binder)
chain: APELLGGPSVFLFPPKPKDTLMISRTPEVTCVVVDVSHEDPEVKFNWYVDGVEVHNAKTKPREEQYNSTYRVVSVLTVLHQDWLNGKEYKCKVSNKALPAPIEKTISKAKGQPREPQVYTLPPSRDELTKNQVSLTCLVKGFYPSDIAVEWESLGHVWVNFKTTPPVLDSDGSFFLYSKLTVPKSTWQQGWVFSCSVMHEALHNHYTQKSLSLSPGK
notes: modified Fc polypeptide
Turning to B1, the binding result in assay [1] is recorded as “binds”.

B2: Clone CH3C.21 (designed binder)
chain: B1 chain with H156L, N160G, F161Y
notes: modified Fc polypeptide
For the molecule B2, the binding result in assay [2] is reported as “binds”.

B3: Clone CH3C.34 (designed binder)
chain: B1 chain with H156L, N160F, F161S
notes: modified Fc polypeptide
B3: in assay [2], the binding result is reported as “binds”.

B4: Clone CH3C.25 (designed binder)
chain: B1 chain with L154M, N160G, F161Y, P183D
notes: modified Fc polypeptide
For the molecule B4, in assay [2], the binding result is given as “binds”.

B5: recombinant cyno TfR ectodomain (ECD), biotinylated (receptor)
chain: CKGVEPKTECERLAGTESPAREEPEEDFPAAPRLYWDDLKRKLSEKLDTTDFTSTIKLLNENLYVPREAGSQKDENLALYIENQFREFKLSKVWRDQHFVKIQVKDSAQNSVIIVDKNGGLVYLVENPGGYVAYSKAATVTGKLVHANFGTKKDFEDLDSPVNGSIVIVRAGKITFAEKVANAESLNAIGVLIYMDQTKFPIVKADLSFFGHAHLGTGDPYTPGFPSFNHTQFPPSQSSGLPNIPVQTISRAAAEKLFGNMEGDCPSDWKTDSTCKMVTSENKSVKLTVSNVLKETKILNIFGVIKGFVEPDHYVVVGAQRDAWGPGAAKSSVGTALLLKLAQMFSDMVLKDGFQPSRSIIFASWSAGDFGSVGATEWLEGYLSSLHLKAFTYINLDKAVLGTSNFKVSASPLLYTLIEKTMQDVKHPVTGRSLYQDSNWASKVEKLTLDNAAFPFLAYSGIPAVSFCFCEDTDYPYLGTTMDTYKELVERIPELNKVARAAAEVAGQFVIKLTHDTELNLDYERYNSQLLLFLRDLNQYRADVKEMGLSLQWLYSARGDFFRATSRLTTDFRNAEKRDKFVMKKLNDRVMRVEYYFLSPYVSPKESPFRHVFWGSGSHTLSALLESLKLRRQNNSAFNETLFRNQLALATWTIQGAANALSGDVWDIDNEF
For the molecule B5, the dissociation constant Kd with CH3C.35.N153.bi was 3.3 µM.

As usually defined, the Kd is the constant that tells how readily two partners part at equilibrium. A low value points to higher affinity.
